{
  "source": "patent US20110256132A1",
  "about": "(published 2011)",
  "binders": {"B1": {"name": "mouse monoclonal antibody 10B3 (antibody, V domains shown)", "VH": "EVQLQQSGPELVKPGASVKISCKASGYSFTGYFMHWVKQSHGNILDWIGNIYPYNGVSNYNQRFKAKATLTVDKSSSTAYMELRSLTSEDSAVYYCARRYYYGTGPADWYFDVWGTGTTVTVSS", "VL": "DIKMTQSPSSMYASLRERVTITCKASQDINSYLSWFQQKPGKSPKTLIYRANRLVDGVPSRFSGSGSGQDYSLTISSLEYEDMGIYYCLQCDEFPLTFGAGTKLELK", "notes": "Mouse IgG2a/kappa from hybridoma; also called 10B3 mouse parental; 10B3 parental"}},
  "biological_target": "T1, mature myostatin (recombinant, dimeric) (mouse polyprotein used for in-house …, UniProt O08689 268-376)",
  "T1 construct": "also called GDF-8; recombinant myostatin",
  "T1 sequence": "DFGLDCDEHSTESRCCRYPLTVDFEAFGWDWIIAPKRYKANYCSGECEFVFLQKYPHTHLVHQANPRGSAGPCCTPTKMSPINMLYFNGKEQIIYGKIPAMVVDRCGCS",
  "assay": "ActRIIb receptor binding assay (Example 2.5), mean IC50",
  "description": "Recombinant soluble ActRIIb (R&D Systems 339-RBB) was coated in wells of an ELISA plate at 1 μg/ml in carbonate buffer overnight at 4° C. Plates were blocked (see Block solution above at 2.3) and washed following standard ELISA protocols. In parallel, 2 nM biotinylated myostatin (in-house, as described in 1.1, biotinylated material) was pre-incubated with an antibody dilution series consisting of 10B3, 10B3C, and a negative control (IgG1 isotype control) for 2 hours at 37° C. The biotinylated myostatin:antibody reactions were then added to the ActRIIb coated plate for 1 hour at 37° C. Standard wash procedures were followed prior to addition of 1:1000 diluted streptavidin-HRP conjugate (Dako P0397) and a further 37° C. incubation for 1 hour. Plates were again washed and assayed at absorbance 490 nm following OPD substrate (Sigma) and acid stop solution treatment Inhibition curves and IC50 values for the inhibition of myostatin activity are shown in FIG. 5 and Table 8 respectively.\nH2L2 C91S_G55S F100G_Y, the developability enhanced molecule with the highest apparent potency in the A204 assay was Fc-disabled (by making the following substitutions, using EU numbering system: Leu 235 Ala; and Gly 237 Ala) as exemplified in SEQ ID NO: 99.",
  "data": [
    {"binder": "B1", "values": [
      {"measurement": "IC50", "result": 0.161, "unit": "nM"}
    ]}
  ]
}
